Data as given in paper PMC11167000 (2024).
One block for each binder: values may come before it. No end group written: not given here.

Columns and labels:
[1] = molecular target: T1, human Growth Differentiation Factor 5 (GDF5, A382–R501) (human, UniProt P43026 382-501); assay: SPR; 2 mM EDTA; replicate 2
T1 chain: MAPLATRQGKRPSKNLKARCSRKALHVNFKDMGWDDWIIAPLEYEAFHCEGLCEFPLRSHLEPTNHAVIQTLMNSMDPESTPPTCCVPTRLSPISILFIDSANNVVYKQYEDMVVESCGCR

human BMP2 [2] = molecular target: T2, human BMP2 (human, UniProt P12643 283-396); assay: SPR; 2 mM EDTA; replicate 2
T2 chain: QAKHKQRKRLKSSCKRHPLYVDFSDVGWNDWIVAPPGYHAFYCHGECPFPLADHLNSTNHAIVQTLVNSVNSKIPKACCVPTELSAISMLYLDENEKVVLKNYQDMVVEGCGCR

human BMP7 [3] = molecular target: T3, human BMP7 (human, UniProt P18075 293-431); assay: SPR; 2 mM EDTA; replicate 2
T3 chain: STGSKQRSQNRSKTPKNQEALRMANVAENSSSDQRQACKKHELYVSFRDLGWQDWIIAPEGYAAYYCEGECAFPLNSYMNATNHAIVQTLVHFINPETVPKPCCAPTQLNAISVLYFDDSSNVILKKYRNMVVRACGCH

[4] = molecular target: T1, human Growth Differentiation Factor 5 …; assay: SPR; 2 mM CaCl2; replicate 1
human BMP2 [5] = molecular target: T2, human BMP2; assay: SPR; 2 mM CaCl2; replicate 1
human BMP7 [6] = molecular target: T3, human BMP7; assay: SPR; 2 mM CaCl2; replicate 1
[7] = molecular target: T1, human Growth Differentiation Factor 5 …; assay: SPR; 2 mM EDTA; replicate 1
human BMP2 [8] = molecular target: T2, human BMP2; assay: SPR; 2 mM EDTA; replicate 1
human BMP7 [9] = molecular target: T3, human BMP7; assay: SPR; 2 mM EDTA; replicate 1
[10] = molecular target: T1, human Growth Differentiation Factor 5 …; assay: SPR; 2 mM CaCl2; replicate 2
human BMP2 [11] = molecular target: T2, human BMP2; assay: SPR; 2 mM CaCl2; replicate 2
human BMP7 [12] = molecular target: T3, human BMP7; assay: SPR; 2 mM CaCl2; replicate 2
human BMP2 [13] = molecular target: T2, human BMP2; assay: SPR; Ca; replicate 2
human BMP7 [14] = molecular target: T3, human BMP7; assay: SPR; Ca; replicate 1
human BMP2 [15] = molecular target: T2, human BMP2; assay: SPR; Ca; replicate 1
human BMP7 [16] = molecular target: T3, human BMP7; assay: SPR; Ca; replicate 2
[17] = molecular target: T1, human Growth Differentiation Factor 5 …; assay: SPR; Ca; replicate 2
[18] = molecular target: T1, human Growth Differentiation Factor 5 …; assay: SPR; Ca; replicate 1

Kd [1]: 4.01 µM | Kd (human BMP2 [2]): 9.54 µM | Kd (human BMP7 [3]): 12.8 µM | Kd [4]: 4.55 µM | Kd (human BMP2 [5]): 2.12 µM | Kd (human BMP7 [6]): 2.94 µM | Kd [7]: 4.72 µM | Kd (human BMP2 [8]): 8.14 µM | Kd (human BMP7 [9]): 13.5 µM | Kd [10]: 2.84 µM | Kd (human BMP2 [11]): 1.65 µM | Kd (human BMP7 [12]): 5.74 µM
B1: BMPR1B (receptor)
chain: KKEDGESTAPTPRPKVLRCKCHHHCPEDSVNNICSTDGYCFTMIEEDDSGLPVVTSGCLGLEGSDFQCRDTPIPHQRRSIECCTERNECNKDLHPTLPPLKNRDFVDGPIHHR

Kd (human BMP2 [13]): 0.771 µM | Kd (human BMP7 [14]): 0.247 µM | Kd (human BMP2 [15]): 0.943 µM | Kd (human BMP7 [16]): 0.557 µM | Kd [17]: 0.0606 µM | Kd [18]: 0.121 µM
B2: TWSG1 NTD Asp34Ala (protein)
chain: CNKALCASAVSKCLIQELCQCRPGEGNCSCCKECMLCLGALWDECCDCVGMCNPRNYS
modifications: disulfide (positions not given here); also: 7 disulfides in NTD, pairing not given here
